Source: the RNAGym collection of RNA variant scans (doi:10.7554/elife.90254)

B1: LINE1-mini (parent)
chain: GGCAGAGCUCAACACAGCGUGGCAAAGUGGCUGUGGCUAGACUGCC

Variants of: B1
Assay: self-cleavage, relative activity (ratio to wild type); higher = more cleavage; in vitro, sequencing; the parent is a self-cleaving ribozyme

Variant | self-cleavage
G7A A39U | 0.25
A6U U34G | 0.28
A6U U34C | 0.12
A6U U34A | 0.06
G7C G44U | 0.15
G7C G44C | 0.18
G7C G44A | 0.09
G7A G22A | 0.14
G7A G22U | 0.14
G7A G22C | 0.13
A6U C37U | 0.07
A6U C37A | 0.08
A6U C37G | 0.04
A6U G17C | 0.59
A6U G17A | 0.11
A6U G17U | 0.26
G7A C10U | 0.04
G7A C10G | 0.02
G7A C10A | 0.05
A6U C23U | 0.89
A6U C23A | 0.9
A6U C23G | 0.46
G7A G27C | 0.18
G7A G27A | 0.06

Variant | self-cleavage
G7A G27U | 0.16
G7A C31A | 0.21
G7A C31U | 0.08
G7A C31G | 0.08
A6U U9G | 0.15
A6U U9A | 0.17
A6U U9C | 0.08
G7A G33C | 0.12
G7A G33U | 0.18
G7A G33A | 0.29
G7A C46A | 0.23
G7A C46G | 0.36
G7A C46U | 0.32
A6U C18G | 0.24
A6U C18U | 0.93
G7A G21U | 0.24
G7A G21A | 0.34
G7A G21C | 0.12
A6U G36C | 0.25
A6U G36A | 0.26
A6U G36U | 0.08
G7C A26U | 0.15
G7C A26C | 0.6
G7C A26G | 0.11

Variant | self-cleavage
G7C G27C | 0.06
G7C G27U | 0.11
G7C G27A | 0.09
A6U G21C | 0.52
A6U G21U | 0.76
A6U G21A | 2.16
G7A C45A | 0.19
G7A C45G | 0.29
G7A C45U | 0.21
G7C U20C | 0.15
G7C U20A | 0.06
G7C U20G | 0.12
G7A A41U | 0.18
G7A A41C | 0.21
G7A A41G | 0.12
A6U C31G | 0.13
A6U C31U | 0.31
A6U C31A | 0.38
G7A G36C | 0.27
G7A G36A | 0.43
G7A G36U | 0.12
A6U G30A | 1.65
A6U G30U | 1.27
A6U G30C | 1.36

Variant | self-cleavage
G7A G44A | 0.19
G7A G44U | 0.18
G7A G44C | 0.28
A6U U32A | 0.15
A6U U32C | 0.1
A6U U32G | 0.13
G7A G29C | 0.07
G7A G29A | 0.09
G7A G29U | 0.2
G7C C31U | 0.05
G7C C31A | 0.09
G7C C31G | 0.06
G7A A24G | 0.16
G7A A24U | 0.16
G7A A24C | 0.12
G7C U32A | 0.05
G7C U32C | 0.07
G7C U32G | 0.05
G7U A11U | 0.04
G7U A11G | 0.03
G7U A11C | 0.02
G7C C45G | 0.11
G7C C45A | 0.1
G7C C45U | 0.16

Variant | self-cleavage
G7C G35U | 0.18
G7C G35C | 0.06
G7C G35A | 0.08
G7C C37A | 0.09
G7C C37U | 0.13
G7C C37G | 0.03
G7U A24U | 0.07
G7U A24C | 0.06
G7U A24G | 0.06
G7C G30A | 0.13
G7C G30U | 0.1
G7C G30C | 0.13
G7A G35U | 0.11
G7A G35C | 0.13
G7A G35A | 0.3
G7C C10A | 0.04
G7C C10G | 0.03
G7C C10U | 0.04
A6U G7A | 0.26
A6U G7U | 0.14
A6U G7C | 0.19
G7C C42U | 0.09
G7C C42G | 0.1
G7C C42A | 0.08

Variant | self-cleavage
G7U A25C | 0.06
G7U A25G | 0.1
A6U G33A | 0.1
A6U G33C | 0.43
A6U G33U | 0.16
A6U U38G | 0.04
A6U U38C | 0.27
A6U U38A | 0.23
A6U C46U | 0.75
A6U C46A | 0.74
A6U C46G | 0.41
A6U U43A | 0.13
A6U U43C | 0.51
A6U U43G | 0.08
G7C G36U | 0.1
G7C G36A | 0.2
G7C G36C | 0.1
G7C A11G | 0.03
G7C A11C | 0.04
G7C A11U | 0.04
G7C U38A | 0.07
G7C U38C | 0.1
G7C U38G | 0.02
A6U G40C | 0.15

Variant | self-cleavage
A6U G40U | 0.3
A6U G40A | 0.35
G7A U32A | 0.13
G7A U32G | 0.11
G7A U32C | 0.17
G7C U43G | 0.05
G7C U43A | 0.15
G7C U43C | 0.33
G7A | 0.2
G7U | 0.1
G7C | 0.13
G7C G33C | 0.08
G7C G33U | 0.07
G7C G33A | 0.06
G7C G19A | 0.14
G7C G19U | 0.07
G7C G19C | 0.05
A6U G22C | 0.37
A6U G22A | 0.57
A6U G22U | 0.79
A6U G27U | 0.58
A6U G27C | 0.38
A6U G27A | 0.42
